Assay results published in the supplement of paper PMC5998384.

Experiments:
HeLa Kyoto [1] = experiment: solubility in G1/S (NP-40 vs SDS abundance) (log2 ratio); higher = more soluble; details: cell cycle stage: G1/S
HeLa Kyoto [2] = experiment: melting temperature (median over replicates), in situ; higher = more thermally stable
HeLa Kyoto [3] = experiment: solubility change mitosis vs G1/S (difference of NP-40 vs SDS log2 ratios) (log2 ratio difference); higher = more soluble in mitosis
HeLa Kyoto [4] = experiment: thermal stability score vs G1/S (z-score of summed log2 fold changes over temperatures); higher = more thermally stable than in G1/S
[5] = cell cycle stage: early G1 (4.5 h after nocodazole release)
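Wherever melting temperature (median over replicates), in situ is given: HeLa Kyoto cells synchronized by double thymidine or nocodazole block, proteins quantified by TMT10plex mass spectrometry, three independent biological replicates.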
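Wherever solubility change mitosis vs G1/S (difference of NP-40 vs SDS log2 ratios) is given: synchronized HeLa Kyoto cells (double thymidine block for G1/S, nocodazole release for mitosis), protein amounts in NP-40 versus SDS lysates quantified by mass spectrometry, three biological replicates.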
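Wherever solubility in G1/S (NP-40 vs SDS abundance) is given: HeLa Kyoto cells arrested at G1/S by double thymidine block, proteins quantified by TMT10plex mass spectrometry in mild NP-40 versus SDS extracts, three biological replicates.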
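Wherever thermal stability score vs G1/S (z-score of summed log2 fold changes over temperatures) is given: synchronized HeLa Kyoto cells, proteins quantified by TMT10plex mass spectrometry, three biological replicates, mitosis taken 0.5 h after nocodazole release, G1/S directly after double thymidine block.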

Row | Sequence | solubility in G1/S (log2) (HeLa Kyoto [1]) | melting temperature (HeLa Kyoto [2]; cell cycle stage: G1/S) [°C] | melting temperature (HeLa Kyoto [2]; cell cycle stage: mitosis) [°C] | solubility change mitosis (log2) (HeLa Kyoto [3]) | thermal stability score (HeLa Kyoto [4]; [5]) | thermal stability score (HeLa Kyoto [4]; cell cycle stage: mitosis)
1 | MFKNTFQSGFLSILYSIGSKPLQIWDKKVRNGHIKRITDNDIQSLVLEIEGTNVSTTYITCPADPKKTLGIKLPFLVMIIKNLKKYFTFEVQVLDDKNVRRRFRASNYQSTTRVKPFICTMPMRLDDGWNQIQFNLLDFTRRAYGTNYIETLRVQIHANCRIRRVYFSDRLYSEDELPAEFKLYLPVQNKAKQ [CFAP20] | -0.154 | 50.9 | 51 | -0.00426 | -0.133 | 0.199
2 | MFLLPLPAAGRVVVRRLAVRRFGSRSLSTADMTKGLVLGIYSKEKEDDVPQFTSAGENFDKLLAGKLRETLNISGPPLKAGKTRTFYGLHQDFPSVVLVGLGKKAAGIDEQENWHEGKENIRAAVAAGCRQIQDLELSSVEVDPCGDAQAAAEGAVLGLYEYDDLKQKKKMAVSAKLYGSGDQEAWQKGVLFASGQNLARQLMETPANEMTPTRFAEIIEKNLKSASSKTEVHIRPKSWIEEQAMGSFLSVAKGSDEPPVFLEIHYKGSPNANEPPLVFVGKGITFDSGGISIKASANMDLMRADMGGAATICSAIVSAAKLNLPINIIGLAPLCENMPSGKANKPGDVVRAKNGKTIQVDNTDAEGRLILADALCYAHTFNPKVILNAATLTGAMDVALGSGATGVFTNSSWLWNKLFEASIETGDRVWRMPLFEHYTRQVVDCQLADVNNIGKYRSAGACTAAAFLKEFVTHPKWAHLDIAGVMTNKDEVPYLRKGMTGRPTRTLIEFLLRFSQDNA [LAP3] | 0.187 | 53.8 | 52.6 | -0.0176 | -5.49 | -3.93
3 | MFLYNLTLQRATGISFAIHGNFSGTKQQEIVVSRGKILELLRPDPNTGKVHTLLTVEVFGVIRSLMAFRLTGGTKDYIVVGSDSGRIVILEYQPSKNMFEKIHQETFGKSGCRRIVPGQFLAVDPKGRAVMISAIEKQKLVYILNRDAAARLTISSPLEAHKANTLVYHVVGVDVGFENPMFACLEMDYEEADNDPTGEAAANTQQTLTFYELDLGLNHVVRKYSEPLEEHGNFLITVPGGSDGPSGVLICSENYITYKNFGDQPDIRCPIPRRRNDLDDPERGMIFVCSATHKTKSMFFFLAQTEQGDIFKITLETDEDMVTEIRLKYFDTVPVAAAMCVLKTGFLFVASEFGNHYLYQIAHLGDDDEEPEFSSAMPLEEGDTFFFQPRPLKNLVLVDELDSLSPILFCQIADLANEDTPQLYVACGRGPRSSLRVLRHGLEVSEMAVSELPGNPNAVWTVRRHIEDEFDAYIIVSFVNATLVLSIGETVEEVTDSGFLGTTPTLSCSLLGDDALVQVYPDGIRHIRADKRVNEWKTPGKKTIVKCAVNQRQVVIALTGGELVYFEMDPSGQLNEYTERKEMSADVVCMSLANVPPGEQRSRFLAVGLVDNTVRIISLDPSDCLQPLSMQALPAQPESLCIVEMGGTEKQDELGERGSIGFLYLNIGLQNGVLLRTVLDPVTGDLSDTRTRYLGSRPVKLFRVRMQGQEAVLAMSSRSWLSYSYQSRFHLTPLSYETLEFASGFASEQCPEGIVAISTNTLRILALEKLGAVFNQVAFPLQYTPRKFVIHPESNNLIIIETDHNAYTEATKAQRKQQMAEEMVEAAGEDERELAAEMAAAFLNENLPESIFGAPKAGNGQWASVIRVMNPIQGNTLDLVQLEQNEAAFSVAVCRFSNTGEDWYVLVGVAKDLILNPRSVAGGFVYTYKLVNNGEKLEFLHKTPVEEVPAAIAPFQGRVLIGVGKLLRVYDLGKKKLLRKCENKHIANYISGIQTIGHRVIVSDVQESFIWVRYKRNENQLIIFADDTYPRWVTTASLLDYDTVAGADKFGNICVVRLPPNTNDEVDEDPTGNKALWDRGLLNGASQKAEVIMNYHVGETVLSLQKTTLIPGGSESLVYTTLSGGIGILVPFTSHEDHDFFQHVEMHLRSEHPPLCGRDHLSFRSYYFPVKNVIDGDLCEQFNSMEPNKQKNVSEELDRTPPEVSKKLEDIRTRYAF [SF3B3] | -0.389 | 52.4 | 51.6 | 0.0933 | -1 | -1.81
4 | MFPFGPHSPGGDGSAGAGAEEPTPHEGQAAATGPPSPLHPGADATHPPPPARSPRRPGAPSLSPAPRSGELGLPGAPESSTASAPGEPSPPSPPCRRPGPDCRAKSRGRHGLGAGLGGPGARLFGWLKERSLGRGLFVDPARDNFRTMTSLYGSIHPADSVYLSTRTHGAVFNLEYSPDGSVLTVACEQTEVLLFDPISSKHIKTLSEAHEDCVNNIRFLDNRLFATCSDDTTIALWDLRKLNTKVCTLHGHTSWVKNIEYDTNTRLLVTSGFDGNVIIWDTNRYTEDGCPHKKFFHTRFLMRMRLTPDCSKMLISTSSGYLLILHDLDLTKSLEVGSYPILRARRTTSSSDLTTSSSSSGPRVSGSPCHHSDSNSSEKHMSRASQREGVSPRNSLEVVTPEVLGESDHGNCITSLQLHPKGWATLLRCSSNSDDEECTCVYEFQEGAPVRPVSPRCSLRLTHYIEEANVGRGYIKELCFSPDGRMISSPHGYGIRLLGFDKQCSELVDCLPKEASPLRVIRSLYSHNDVVLTTKFSPTHCQIASGCLSGRVSLYQPKF [DCAF10] | -0.0366 | 53.7 | 51.2 | -0.0652 | -2.74 | -3.62
5 | MFRFMRDVEPEDPMFLMDPFAIHRQHMSRMLSGGFGYSPFLSITDGNMPGTRPASRRMQQAGAVSPFGMLGMSGGFMDMFGMMNDMIGNMEHMTAGGNCQTFSSSTVISYSNTGDGAPKVYQETSEMRSAPGGIRETRRTVRDSDSGLEQMSIGHHIRDRAHILQRSRNHRTGDQEERQDYINLDESEAAAFDDEWRRETSRFRQQRPLEFRRLESSGAGGRRAEGPPRLAIQGPEDSPSRQSRRYDW [MLF2] | 0.236 | 46.2 |  | -0.0421 | 1.43 | 5.61
6 | MFRLNSLSALAELAVGSRWYHGGSQPIQIRRRLMMVAFLGASAVTASTGLLWKRAHAESPPCVDNLKSDIGDKGKNKDEGDVCNHEKKTADLAPHPEEKKKKRSGFRDRKVMEYENRIRAYSTPDKIFRYFATLKVISEPGEAEVFMTPEDFVRSITPNEKQPEHLGLDQYIIKRFDGKKISQEREKFADEGSIFYTLGECGLISFSDYIFLTTVLSTPQRNFEIAFKMFDLNGDGEVDMEEFEQVQSIIRSQTSMGMRHRDRPTTGNTLKSGLCSALTTYFFGADLKGKLTIKNFLEFQRKLQHDVLKLEFERHDPVDGRITERQFGGMLLAYSGVQSKKLTAMQRQLKKHFKEGKGLTFQEVENFFTFLKNINDVDTALSFYHMAGASLDKVTMQQVARTVAKVELSDHVCDVVFALFDCDGNGELSNKEFVSIMKQRLMRGLEKPKDMGFTRLMQAMWKCAQETAWDFALPKQ [MICU1] | -0.299 | 52.2 | 51.3 | -0.00566 | 1.14 | 1.13
7 | MFSKLAHLQRFAVLSRGVHSSVASATSVATKKTVQGPPTSDDIFEREYKYGAHNYHPLPVALERGKGIYLWDVEGRKYFDFLSSYSAVNQGHCHPKIVNALKSQVDKLTLTSRAFYNNVLGEYEEYITKLFNYHKVLPMNTGVEAGETACKLARKWGYTVKGIQKYKAKIVFAAGNFWGRTLSAISSSTDPTSYDGFGPFMPGFDIIPYNDLPALERALQDPNVAAFMVEPIQGEAGVVVPDPGYLMGVRELCTRHQVLFIADEIQTGLARTGRWLAVDYENVRPDIVLLGKALSGGLYPVSAVLCDDDIMLTIKPGEHGSTYGGNPLGCRVAIAALEVLEEENLAENADKLGIILRNELMKLPSDVVTAVRGKGLLNAIVIKETKDWDAWKVCLRLRDNGLLAKPTHGDIIRFAPPLVIKEDELRESIEIINKTILSF [OAT] | 0.246 | 52.8 | 53 | -0.168 | 0.897 | -0.508
8 | MFSLDSFRKDRAQHRQRQCKLPPPRLPPMCVNPTPGGTISRASRDLLKEFPQPKNLLNSVIGRALGISHAKDKLVYVHTNGPKKKKVTLHIKWPKSVEVEGYGSKKIDAERQAAAAACQLFKGWGLLGPRNELFDAAKYRVLADRFGSPADSWWRPEPTMPPTSWRQLNPESIRPGGPGGLSRSLGREEEEDEEEELEEGTIDVTDFLSMTQQDSHAPLRDSRGSSFEMTDDDSAIRALTQFPLPKNLLAKVIQIATSSSTAKNLMQFHTVGTKTKLSTLTLLWPCPMTFVAKGRRKAEAENKAAALACKKLKSLGLVDRNNEPLTHAMYNLASLRELGETQRRPCTIQVPEPILRKIETFLNHYPVESSWIAPELRLQSDDILPLGKDSGPLSDPITGKPYVPLLEAEEVRLSQSLLELWRRRGPVWQEAPQLPVDPHRDTILNAIEQHPVVVISGDTGCGKTTRIPQLLLERYVTEGRGARCNVIITQPRRISAVSVAQRVSHELGPSLRRNVGFQVRLESKPPSRGGALLFCTVGILLRKLQSNPSLEGVSHVIVDEVHERDVNTDFLLILLKGLQRLNPALRLVLMSATGDNERFSRYFGGCPVIKVPGFMYPVKEHYLEDILAKLGKHQYLHRHRHHESEDECALDLDLVTDLVLHIDARGEPGGILCFLPGWQEIKGVQQRLQEALGMHESKYLILPVHSNIPMMDQKAIFQQPPVGVRKIVLATNIAETSITINDIVHVVDSGLHKEERYDLKTKVSCLETVWVSRANVIQRRGRAGRCQSGFAYHLFPRSRLEKMVPFQVPEILRTPLENLVLQAKIHMPEKTAVEFLSKAVDSPNIKAVDEAVILLQEIGVLDQREYLTTLGQRLAHISTDPRLAKAIVLAAIFRCLHPLLVVVSCLTRDPFSSSLQNRAEVDKVKALLSHDSGSDHLAFVRAVAGWEEVLRWQDRSSRENYLEENLLYAPSLRFIHGLIKQFSENIYEAFLVGKPSDCTLASAQCNEYSEEEELVKGVLMAGLYPNLIQVRQGKVTRQGKFKPNSVTYRTKSGNILLHKSTINREATRLRSRWLTYFMAVKSNGSVFVRDSSQVHPLAVLLLTDGDVHIRDDGRRATISLSDSDLLRLEGDSRTVRLLKELRRALGRMVERSLRSELAALPPSVQEEHGQLLALLAELLRGPCGSFDVRKTADD [DHX30] | -1.02 | 51.1 | 51.2 | 0.218 | -0.697 | -0.349
9 | MFSQQQQQQLQQQQQQLQQLQQQQLQQQQLQQQQLLQLQQLLQQSPPQAPLPMAVSRGLPPQQPQQPLLNLQGTNSASLLNGSMLQRALLLQQLQGLDQFAMPPATYDTAGLTMPTATLGNLRGYGMASPGLAAPSLTPPQLATPNLQQFFPQATRQSLLGPPPVGVPMNPSQFNLSGRNPQKQARTSSSTTPNRKDSSSQTMPVEDKSDPPEGSEEAAEPRMDTPEDQDLPPCPEDIAKEKRTPAPEPEPCEASELPAKRLRSSEEPTEKEPPGQLQVKAQPQARMTVPKQTQTPDLLPEALEAQVLPRFQPRVLQVQAQVQSQTQPRIPSTDTQVQPKLQKQAQTQTSPEHLVLQQKQVQPQLQQEAEPQKQVQPQVQPQAHSQGPRQVQLQQEAEPLKQVQPQVQPQAHSQPPRQVQLQLQKQVQTQTYPQVHTQAQPSVQPQEHPPAQVSVQPPEQTHEQPHTQPQVSLLAPEQTPVVVHVCGLEMPPDAVEAGGGMEKTLPEPVGTQVSMEEIQNESACGLDVGECENRAREMPGVWGAGGSLKVTILQSSDSRAFSTVPLTPVPRPSDSVSSTPAATSTPSKQALQFFCYICKASCSSQQEFQDHMSEPQHQQRLGEIQHMSQACLLSLLPVPRDVLETEDEEPPPRRWCNTCQLYYMGDLIQHRRTQDHKIAKQSLRPFCTVCNRYFKTPRKFVEHVKSQGHKDKAKELKSLEKEIAGQDEDHFITVDAVGCFEGDEEEEEDDEDEEEIEVEEELCKQVRSRDISREEWKGSETYSPNTAYGVDFLVPVMGYICRICHKFYHSNSGAQLSHCKSLGHFENLQKYKAAKNPSPTTRPVSRRCAINARNALTALFTSSGRPPSQPNTQDKTPSKVTARPSQPPLPRRSTRLKT [CIZ1] | -0.24 | 51.5 | 53.7 | 0.168 | 0.59 | 2.85
